{"source": "patent US20090137467A1", "key": {"[1]": {"molecular_target": "[Asn516]β-RNAP (Escherichia coli)"}, "[2]": {"molecular_target": "[Asn516]β-RNAP (Escherichia coli)", "remark": "listed apart in the source"}, "[3]": {"molecular_target": "Escherichia coli RNA polymerase (Escherichia coli) (UniProt P0A8T7)"}}, "note": "Like-named read-outs stand apart in the source and are kept apart here."}
{"substance": "{rifamycin SV}-{CH2C(O)NH(CH2)6NHC(O)CH2S(CH2)3C(NH2+)}-{[Lys5]MccJ25} (from UniProt Q9X2V7) (peptide)", "values": [{"measurement": "inhibition of transcription (IC50)", "setting": "[1]", "value": 130, "unit": "µM"}]}
{"substance": "{rifamycin SV}-{CH2C(O)NH(CH2)8NHC(O)CH2S(CH2)3C(NH2+)}-{[Lys5]MccJ25} (from UniProt Q9X2V7) (peptide)", "values": [{"measurement": "inhibition of transcription (IC50)", "setting": "[1]", "value": 100, "unit": "µM"}]}
{"substance": "{rifamycin SV}-{CH2C(O)NH(CH2)10NHC(O)(CH2)2(C2N3)(CH2)4C(O)}-{[Lys5]microcin J25} (from UniProt Q9X2V7) (peptide)", "values": [{"measurement": "inhibition of transcription (IC50)", "setting": "[2]", "value": 220, "unit": "µM"}]}
{"substance": "{rifamycin SV}-{CH2C(O)NH(CH2)10NHC(O)CH2S(CH2)3C(NH2+)}-{[Lys5]MccJ25} (from UniProt Q9X2V7) (peptide)", "values": [{"measurement": "inhibition of transcription (IC50)", "setting": "[1]", "value": 95, "unit": "µM"}]}
{"substance": "{rifamycin SV}-{CH2C(O)NH(CH2)12NHC(O)CH2S(CH2)3C(NH2+)}-{[Lys5]microcin J25} (from UniProt Q9X2V7) (peptide)", "values": [{"measurement": "inhibition of RNAP (IC50)", "setting": "[3]", "value": 2, "unit": "nM"}, {"measurement": "inhibition of transcription (IC50)", "setting": "[1]", "value": 48, "unit": "µM"}]}
